Experimental findings from patent publication US20190040102A1 (CDRD VENTURES, published 2019) are described below.

In the test the target is somatostatin receptor type 2 (SSTR2) (UniProt P30874 1-369). As to the kind of experiment: cell-based or functional assay.

Starred links: 1 amine or outer side, 2 acyl side, 3 side chain; linkers in the order of their positions; H or OH if unused. Positions of bridges follow the written chain, without caps; N, C: chain ends. Non-standard residues stand in square brackets, D forms with d. Tyr(Me) = 4-OMe-Phe, COc1ccc(C[C@H](N[*:1])C(=O)[*:2])cc1; dPhe(4-CONH2) = NC(=O)c1ccc(C[C@@H](N)C(=O)O)cc1; dTyr(Me) = COc1ccc(C[C@@H](N[*:1])C(=O)[*:2])cc1; Phe(4-Cl) = N[C@@H](Cc1ccc(Cl)cc1)C(=O)O; dPhe(4-Cl) = N[C@H](Cc1ccc(Cl)cc1)C(=O)O; Tle = CC(C)(C)[C@H](N)C(=O)O; βAla = NCCC(=O)O

somatostatin receptor type 2 (SSTR2), sequence (P30874 whole entry): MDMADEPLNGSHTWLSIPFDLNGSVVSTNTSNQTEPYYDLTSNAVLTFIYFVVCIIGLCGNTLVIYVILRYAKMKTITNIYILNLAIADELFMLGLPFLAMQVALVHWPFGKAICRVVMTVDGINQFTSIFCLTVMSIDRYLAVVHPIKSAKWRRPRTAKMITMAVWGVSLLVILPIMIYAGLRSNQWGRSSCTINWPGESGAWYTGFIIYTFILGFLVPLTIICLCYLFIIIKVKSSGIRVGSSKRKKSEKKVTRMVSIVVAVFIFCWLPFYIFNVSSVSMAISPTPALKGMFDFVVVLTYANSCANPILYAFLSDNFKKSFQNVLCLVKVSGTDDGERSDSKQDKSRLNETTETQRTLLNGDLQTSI

B1: Compound 36: H-Cpa-cyclo[DCys-Cpa-D-(4-carbamoyl)Phe-Lys-Thr-Cys]-DTyr-NH2 (peptide)
peptide: H-[Phe(4-Cl)][dC][Phe(4-Cl)][dPhe(4-CONH2)]KTC[dY]-NH2
modifications: disulfide 2-7
SMILES: C[C@@H](O)[C@@H]1NC(=O)[C@H](CCCCN)NC(=O)[C@@H](Cc2ccc(C(N)=O)cc2)NC(=O)[C@H](Cc2ccc(Cl)cc2)NC(=O)[C@H](NC(=O)[C@@H](N)Cc2ccc(Cl)cc2)CSSC[C@@H](C(=O)N[C@H](Cc2ccc(O)cc2)C(N)=O)NC1=O
B1: the “IC50 (PathHunter β-Arrestin, antagonist mode)” value (from here on “IC50”) came to 28.7 nM.

B2: Compound 39: H-Cpa-cyclo[Cys-Tyr-D-(4-carbamoyl)Phe-Lys-Thr-Cys]-DTyr-NH2 (peptide)
peptide: XCYXKTCX
HELM: PEPTIDE1{[N[C@@H](Cc1ccc(Cl)cc1)C(=O)[*:2]].C.Y.[NC(=O)c1ccc(C[C@@H](N[*:1])C(=O)[*:2])cc1].K.T.C.[dY].[am]}$PEPTIDE1,PEPTIDE1,2:R3-7:R3$$$V2.0
SMILES: C[C@@H](O)[C@@H]1NC(=O)[C@H](CCCCN)NC(=O)[C@@H](Cc2ccc(C(N)=O)cc2)NC(=O)[C@H](Cc2ccc(O)cc2)NC(=O)[C@@H](NC(=O)[C@@H](N)Cc2ccc(Cl)cc2)CSSC[C@@H](C(=O)N[C@H](Cc2ccc(O)cc2)C(N)=O)NC1=O
Take B2: the “IC50” value is more than 1000 nM.

B3: Compound 48: H-Cpa-cyclo[D-Cys-Cpa-D-Phe(4-carbamoyl)-Lys(Nε-Me)-Thr-Cys]-D-Tyr-NH2 (peptide)
peptide: H-[Phe(4-Cl)][dC][Phe(4-Cl)][dPhe(4-CONH2)]K(Me)TC[dY]-NH2
modifications: disulfide 2-7
SMILES: CNCCCC[C@@H]1NC(=O)[C@@H](Cc2ccc(C(N)=O)cc2)NC(=O)[C@H](Cc2ccc(Cl)cc2)NC(=O)[C@H](NC(=O)[C@@H](N)Cc2ccc(Cl)cc2)CSSC[C@@H](C(=O)N[C@H](Cc2ccc(O)cc2)C(N)=O)NC(=O)[C@H]([C@@H](C)O)NC1=O
Regarding B3, the “IC50” value was 1.31 nM.

B4: Compound 42: H-Cpa-cyclo[DCys-Tyr-D-(4-carbamoyl)Phe-Lys-Thr-Cys]-4-Cl-D-Phe-NH2 (peptide)
peptide: H-[Phe(4-Cl)][dC]Y[dPhe(4-CONH2)]KTC[dPhe(4-Cl)]-NH2
modifications: disulfide 2-7
SMILES: C[C@@H](O)[C@@H]1NC(=O)[C@H](CCCCN)NC(=O)[C@@H](Cc2ccc(C(N)=O)cc2)NC(=O)[C@H](Cc2ccc(O)cc2)NC(=O)[C@H](NC(=O)[C@@H](N)Cc2ccc(Cl)cc2)CSSC[C@@H](C(=O)N[C@H](Cc2ccc(Cl)cc2)C(N)=O)NC1=O
B4: the “IC50” value stood at 9.84 nM.

B5: Compound 43: H-Cpa-cyclo[DCys-4-Cl-Phe-D-(4-carbamoyl)Phe-Lys-Thr-Cys]-4-Cl-D-Phe-NH2 (peptide)
peptide: H-[Phe(4-Cl)][dC][Phe(4-Cl)][dPhe(4-CONH2)]KTC[dPhe(4-Cl)]-NH2
modifications: disulfide 2-7
SMILES: C[C@@H](O)[C@@H]1NC(=O)[C@H](CCCCN)NC(=O)[C@@H](Cc2ccc(C(N)=O)cc2)NC(=O)[C@H](Cc2ccc(Cl)cc2)NC(=O)[C@H](NC(=O)[C@@H](N)Cc2ccc(Cl)cc2)CSSC[C@@H](C(=O)N[C@H](Cc2ccc(Cl)cc2)C(N)=O)NC1=O
Turning to B5, the “IC50” value turned out to be 25.6 nM.

B6: Compound 46: H-Cpa-cyclo[D-Cys-Tyr-D-Phe(4-carbamoyl)-Lys(Nε-Me)-Thr-Cys]-D-Cpa-NH2 (peptide)
peptide: H-[Phe(4-Cl)][dC]Y[dPhe(4-CONH2)]K(Me)TC[dPhe(4-Cl)]-NH2
modifications: disulfide 2-7
SMILES: CNCCCC[C@@H]1NC(=O)[C@@H](Cc2ccc(C(N)=O)cc2)NC(=O)[C@H](Cc2ccc(O)cc2)NC(=O)[C@H](NC(=O)[C@@H](N)Cc2ccc(Cl)cc2)CSSC[C@@H](C(=O)N[C@H](Cc2ccc(Cl)cc2)C(N)=O)NC(=O)[C@H]([C@@H](C)O)NC1=O
Regarding B6, the “IC50” value turned out to be 0.398 nM.

B7: Compound 34: H-Cpa-cyclo[DCys-Tyr-D-4-(carbamoyl)Phe-Lys-tBu-Gly-Cys]-DTyr-NH2 (peptide)
peptide: H-[Phe(4-Cl)][dC]Y[dPhe(4-CONH2)]K[Tle]C[dY]-NH2
modifications: disulfide 2-7
SMILES: CC(C)(C)[C@@H]1NC(=O)[C@H](CCCCN)NC(=O)[C@@H](Cc2ccc(C(N)=O)cc2)NC(=O)[C@H](Cc2ccc(O)cc2)NC(=O)[C@H](NC(=O)[C@@H](N)Cc2ccc(Cl)cc2)CSSC[C@@H](C(=O)N[C@H](Cc2ccc(O)cc2)C(N)=O)NC1=O
Turning to B7, the “IC50” value worked out at 43.4 nM.

B8: Compound 44: H-Cpa-cyclo[DCys-Tyr-D-(4-carbamoyl)Phe-Lys-Thr-Cys]-4-OMe-D-Phe-NH2 (peptide)
peptide: H-[Phe(4-Cl)][dC]Y[dPhe(4-CONH2)]KTC[dTyr(Me)]-NH2
modifications: disulfide 2-7
SMILES: COc1ccc(C[C@@H](NC(=O)[C@@H]2CSSC[C@@H](NC(=O)[C@@H](N)Cc3ccc(Cl)cc3)C(=O)N[C@@H](Cc3ccc(O)cc3)C(=O)N[C@H](Cc3ccc(C(N)=O)cc3)C(=O)N[C@@H](CCCCN)C(=O)N[C@@H]([C@@H](C)O)C(=O)N2)C(N)=O)cc1
Regarding B8, the “IC50” value was found to be 10.7 nM.

B9: Compound 49: H-βAla-Cpa-cyclo[DCys-Tyr-DPhe(4-CONH2)-Lys(Me)-Thr-Cys]-DTyr-NH2 (peptide)
peptide: H-[βAla][Phe(4-Cl)][dC]Y[dPhe(4-CONH2)]K(Me)TC[dY]-NH2
modifications: disulfide 3-8
SMILES: CNCCCC[C@@H]1NC(=O)[C@@H](Cc2ccc(C(N)=O)cc2)NC(=O)[C@H](Cc2ccc(O)cc2)NC(=O)[C@H](NC(=O)[C@H](Cc2ccc(Cl)cc2)NC(=O)CCN)CSSC[C@@H](C(=O)N[C@H](Cc2ccc(O)cc2)C(N)=O)NC(=O)[C@H]([C@@H](C)O)NC1=O
Regarding B9, the “IC50” value stood at 2.86 nM.

B10: Compound 45: H-Cpa-cyclo[DCys-4-OMe-Phe-D-(4-carbamoyl)Phe-Lys-Thr-Cys]-4-OMe-D-Phe-NH2 (peptide)
peptide: H-[Phe(4-Cl)][dC][Tyr(Me)][dPhe(4-CONH2)]KTC[dTyr(Me)]-NH2
modifications: disulfide 2-7
SMILES: COc1ccc(C[C@@H]2NC(=O)[C@H](NC(=O)[C@@H](N)Cc3ccc(Cl)cc3)CSSC[C@@H](C(=O)N[C@H](Cc3ccc(OC)cc3)C(N)=O)NC(=O)[C@H]([C@@H](C)O)NC(=O)[C@H](CCCCN)NC(=O)[C@@H](Cc3ccc(C(N)=O)cc3)NC2=O)cc1
On to B10, for which the “IC50” value was found to be 14.6 nM.

B11: Compound 35: H-Cpa-cyclo[DCys-Phe-D-(4-carbamoyl)Phe-Lys-Thr-Cys]-DTyr-NH2 (peptide)
peptide: XXFXKTCX
HELM: PEPTIDE1{[N[C@@H](Cc1ccc(Cl)cc1)C(=O)[*:2]].[dC].F.[NC(=O)c1ccc(C[C@@H](N[*:1])C(=O)[*:2])cc1].K.T.C.[dY].[am]}$PEPTIDE1,PEPTIDE1,2:R3-7:R3$$$V2.0
SMILES: C[C@@H](O)[C@@H]1NC(=O)[C@H](CCCCN)NC(=O)[C@@H](Cc2ccc(C(N)=O)cc2)NC(=O)[C@H](Cc2ccccc2)NC(=O)[C@H](NC(=O)[C@@H](N)Cc2ccc(Cl)cc2)CSSC[C@@H](C(=O)N[C@H](Cc2ccc(O)cc2)C(N)=O)NC1=O
B11: the “IC50” value worked out at 35.9 nM.

B12: Compound 41: H-Cpa-cyclo[DCys-Phe-D-(4-carbamoyl)Phe-Lys-Thr-Cys]-DPhe-NH2 (peptide)
peptide: XXFXKTCX
HELM: PEPTIDE1{[N[C@@H](Cc1ccc(Cl)cc1)C(=O)[*:2]].[dC].F.[NC(=O)c1ccc(C[C@@H](N[*:1])C(=O)[*:2])cc1].K.T.C.[dF].[am]}$PEPTIDE1,PEPTIDE1,2:R3-7:R3$$$V2.0
SMILES: C[C@@H](O)[C@@H]1NC(=O)[C@H](CCCCN)NC(=O)[C@@H](Cc2ccc(C(N)=O)cc2)NC(=O)[C@H](Cc2ccccc2)NC(=O)[C@H](NC(=O)[C@@H](N)Cc2ccc(Cl)cc2)CSSC[C@@H](C(=O)N[C@H](Cc2ccccc2)C(N)=O)NC1=O
For B12, the “IC50” value came to 24.4 nM.

B13: Compound 37: H-Cpa-cyclo[DCys-Tyr-D-(4-carbamoyl)Phe-Lys-Ser-Cys]-DTyr-NH2 (peptide)
peptide: XXYXKSCX
HELM: PEPTIDE1{[N[C@@H](Cc1ccc(Cl)cc1)C(=O)[*:2]].[dC].Y.[NC(=O)c1ccc(C[C@@H](N[*:1])C(=O)[*:2])cc1].K.S.C.[dY].[am]}$PEPTIDE1,PEPTIDE1,2:R3-7:R3$$$V2.0
SMILES: NCCCC[C@@H]1NC(=O)[C@@H](Cc2ccc(C(N)=O)cc2)NC(=O)[C@H](Cc2ccc(O)cc2)NC(=O)[C@H](NC(=O)[C@@H](N)Cc2ccc(Cl)cc2)CSSC[C@@H](C(=O)N[C@H](Cc2ccc(O)cc2)C(N)=O)NC(=O)[C@H](CO)NC1=O
In the case of B13, the “IC50” value was determined as 10.6 nM.

B14: Compound 40: H-Cpa-cyclo[DCys-Tyr-D-(4-carbamoyl)Phe-Lys-Thr-Cys]-DPhe-NH2 (peptide)
peptide: XXYXKTCX
HELM: PEPTIDE1{[N[C@@H](Cc1ccc(Cl)cc1)C(=O)[*:2]].[dC].Y.[NC(=O)c1ccc(C[C@@H](N[*:1])C(=O)[*:2])cc1].K.T.C.[dF].[am]}$PEPTIDE1,PEPTIDE1,2:R3-7:R3$$$V2.0
SMILES: C[C@@H](O)[C@@H]1NC(=O)[C@H](CCCCN)NC(=O)[C@@H](Cc2ccc(C(N)=O)cc2)NC(=O)[C@H](Cc2ccc(O)cc2)NC(=O)[C@H](NC(=O)[C@@H](N)Cc2ccc(Cl)cc2)CSSC[C@@H](C(=O)N[C@H](Cc2ccccc2)C(N)=O)NC1=O
As to B14, the “IC50” value worked out at 16.2 nM.

B15: Compound 33: H-Cpa-cyclo[DCys-Tyr-D-4-(carbamoyl)Phe-Lys-Val-Cys]-DTyr-NH2 (peptide)
peptide: XXYXKVCX
HELM: PEPTIDE1{[N[C@@H](Cc1ccc(Cl)cc1)C(=O)[*:2]].[dC].Y.[NC(=O)c1ccc(C[C@@H](N[*:1])C(=O)[*:2])cc1].K.V.C.[dY].[am]}$PEPTIDE1,PEPTIDE1,2:R3-7:R3$$$V2.0
SMILES: CC(C)[C@@H]1NC(=O)[C@H](CCCCN)NC(=O)[C@@H](Cc2ccc(C(N)=O)cc2)NC(=O)[C@H](Cc2ccc(O)cc2)NC(=O)[C@H](NC(=O)[C@@H](N)Cc2ccc(Cl)cc2)CSSC[C@@H](C(=O)N[C@H](Cc2ccc(O)cc2)C(N)=O)NC1=O
B15: the “IC50” value turned out to be 56 nM.

B16: Compound 38: H-Cpa-cyclo[DCys-4-OMe-Phe-D-(4-carbamoyl)Phe-Lys-Thr-Cys]-DTyr-NH2 (peptide)
peptide: H-[Phe(4-Cl)][dC][Tyr(Me)][dPhe(4-CONH2)]KTC[dY]-NH2
modifications: disulfide 2-7
SMILES: COc1ccc(C[C@@H]2NC(=O)[C@H](NC(=O)[C@@H](N)Cc3ccc(Cl)cc3)CSSC[C@@H](C(=O)N[C@H](Cc3ccc(O)cc3)C(N)=O)NC(=O)[C@H]([C@@H](C)O)NC(=O)[C@H](CCCCN)NC(=O)[C@@H](Cc3ccc(C(N)=O)cc3)NC2=O)cc1
Take B16: the “IC50” value came to 24.4 nM.

B17: Compound 47: H-Cpa-cyclo[D-Cys-Cpa-D-Phe(4-carbamoyl)-Lys(Nε-Me)-Thr-Cys]-D-Cpa-NH2 (peptide)
peptide: H-[Phe(4-Cl)][dC][Phe(4-Cl)][dPhe(4-CONH2)]K(Me)TC[dPhe(4-Cl)]-NH2
modifications: disulfide 2-7
SMILES: CNCCCC[C@@H]1NC(=O)[C@@H](Cc2ccc(C(N)=O)cc2)NC(=O)[C@H](Cc2ccc(Cl)cc2)NC(=O)[C@H](NC(=O)[C@@H](N)Cc2ccc(Cl)cc2)CSSC[C@@H](C(=O)N[C@H](Cc2ccc(Cl)cc2)C(N)=O)NC(=O)[C@H]([C@@H](C)O)NC1=O
With B17, the “IC50” value stood at 1.51 nM.
